# Laboratory results as given in publication PMC10465592, “Reduced ADP off-rate by the yeast CCT2 double mutation T394P/R510H which causes Leber congenital amaurosis in humans” (Communications Biology, 2023).
# What was measured:
# Test in all cases: steady-state ATPase, coumarin-labelled phosphate-binding protein fluorescence, fit to two allosteric transitions
# Format in all cases: biochemical, Saccharomyces cerevisiae
# Settings in all cases: 25 °C, pH 7.5 Tris-HCl, 10 mM MgCl2, 50 mM KCl, 20% glycerol, 1 mM DTT, first ring (stronger site), cooperative
# [1] = system: T1, Nc1ncnc2c1ncn2[C@@H]1O[C@H](COP(=O)(O)OP(=O)(O)OP(=O)(O)O)[C@@H](O)[C@H]1O
# T1 construct: native complex from yeast cells, two back-to-back rings each of eight distinct subunits CCT1-CCT8; CCT2 mutations introduced in the chromosomal gene
# Excerpt: steady-state ATPase, coumarin-labelled phosphate-binding protein fluorescence, fit to two allosteric transitions on CCT/TRiC (Saccharomyces cerevisiae) | In the case of the wild-type, the values of the apparent ATP binding constants
# [2] = system: T1, Nc1ncnc2c1ncn2[C@@H]1O[C@H](COP(=O)(O)OP(=O)(O)OP(=O)(O)O)[C@@H](O)[C@H]1O; remark: listed apart in the source
# Excerpt: steady-state ATPase, coumarin-labelled phosphate-binding protein fluorescence, fit to two allosteric transitions on CCT/TRiC (Saccharomyces cerevisiae) | In the case of the R510H single mutant, the values of the apparent ATP binding
# [3] = system: T1, Nc1ncnc2c1ncn2[C@@H]1O[C@H](COP(=O)(O)OP(=O)(O)OP(=O)(O)O)[C@@H](O)[C@H]1O; remark: listed apart in the source
# Excerpt: steady-state ATPase, coumarin-labelled phosphate-binding protein fluorescence, fit to two allosteric transitions on CCT/TRiC (Saccharomyces cerevisiae) | In the case of the T394P single mutant, the values of the apparent ATP binding
substance,measurement,setting,value
CCT/TRiC (Saccharomyces cerevisiae) (Saccharomyces cerevisiae S288C),K0.5,[1],8.3 (±1.6) μM
same,kcat,[1],0.043 (±0.005) s^-1
CCT/TRiC (Saccharomyces cerevisiae) (Saccharomyces cerevisiae S288C; P39076:R510H),K0.5,[2],7.1 (±2.4) μM
same,kcat,[2],0.10 (±0.03) s^-1
CCT/TRiC (Saccharomyces cerevisiae) (Saccharomyces cerevisiae S288C; P39076:T394P),K0.5,[3],8.9 (±3.4) μM
same,kcat,[3],0.11 (±0.03) s^-1
